Assay results as given in the supplement of paper PMC9112550, “Optimization of the antimicrobial peptide Bac7 by deep mutational scanning” (BMC Biology, 2022).

System: Escherichia coli TOP10
Assay: shrunken log2 fold change of peptide-encoding DNA abundance (4.5 h post-induction vs induction); higher = less antimicrobial activity (less host growth inhibition)
Conditions: time post-induction: 4.5 h; library: site-saturation at positions 5, 18, 19, 20
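Also: peptides expressed intracellularly from a pBAD plasmid library in pooled LB shake-flask culture, induced with 0.3% L-arabinose, DNA abundance read by NGS, three biological replicates, DESeq2 with apeglm shrinkage.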

Point of comparison: RRIRRRPPRLPRPRPRPEMAPRP, “shrunken log2 fold change” value 0.145. Against it:
- RRIRDRPPRLPRPRPRPIKYPRP — lower, -0.206
- RRIRSRPPRLPRPRPRPLGPPRP — within 0.2 log units, 0.0761
- RRIRIRPPRLPRPRPRPPDIPRP — lower, -0.198
- RRIRSRPPRLPRPRPRPRGCPRP — higher, 0.383
- RRIRYRPPRLPRPRPRPNEVPRP — within 0.2 log units, -0.00663
- RRIRARPPRLPRPRPRPLVSPRP — higher, 0.653
- RRIRDRPPRLPRPRPRPELSPRP — higher, 1.55
- RRIRARPPRLPRPRPRPSNVPRP — lower, -0.248
- RRIRWRPPRLPRPRPRPLNEPRP — lower, -0.0646
- RRIRFRPPRLPRPRPRPETYPRP — within 0.2 log units, -0.0354
- RRIRRRPPRLPRPRPRPWYHPRP — lower, -0.0689
- RRIRIRPPRLPRPRPRPPPGPRP — higher, 0.685
- RRIRCRPPRLPRPRPRPCRRPRP — within 0.2 log units, 0.0819
- RRIRHRPPRLPRPRPRPTPGPRP — within 0.2 log units, 0.327
- RRIRWRPPRLPRPRPRPKQDPRP — within 0.2 log units, 0.00878
- RRIRDRPPRLPRPRPRPDCPPRP — within 0.2 log units, -0.0117
- RRIRGRPPRLPRPRPRPFTPPRP — within 0.2 log units, 0.0836
- RRIRCRPPRLPRPRPRPNKHPRP — lower, -0.541
- RRIRSRPPRLPRPRPRPISRPRP — lower, -0.416
- RRIRKRPPRLPRPRPRPCCNPRP — within 0.2 log units, 0.0185
- RRIRERPPRLPRPRPRPFTSPRP — lower, -0.209
- RRIRERPPRLPRPRPRPDEEPRP — lower, -0.142
- RRIRERPPRLPRPRPRPWYSPRP — lower, -0.798
- RRIRHRPPRLPRPRPRPENQPRP — lower, -0.243
- RRIRDRPPRLPRPRPRPQLIPRP — within 0.2 log units, 0.0732
- RRIRFRPPRLPRPRPRPAIFPRP — lower, -0.416
- RRIRDRPPRLPRPRPRPEHFPRP — lower, -0.138
- RRIRKRPPRLPRPRPRPHNWPRP — within 0.2 log units, 0.172
- RRIRFRPPRLPRPRPRPEIRPRP — within 0.2 log units, 0.0106
- RRIRSRPPRLPRPRPRPDLIPRP — within 0.2 log units, -0.00967
- RRIRMRPPRLPRPRPRPNDDPRP — within 0.2 log units, 0.196
- RRIRERPPRLPRPRPRPWRKPRP — lower, -0.173
- RRIRERPPRLPRPRPRPTGPPRP — higher, 0.353
- RRIRQRPPRLPRPRPRPFICPRP — within 0.2 log units, -0.0129
- RRIRYRPPRLPRPRPRPGNLPRP — within 0.2 log units, 0.0185
- RRIRNRPPRLPRPRPRPPPMPRP — higher, 0.678
- RRIRPRPPRLPRPRPRPYSTPRP — lower, -0.729
- RRIRMRPPRLPRPRPRPRNIPRP — within 0.2 log units, 0.0054
- RRIRWRPPRLPRPRPRPYLFPRP — lower, -0.31
- RRIRQRPPRLPRPRPRPAHCPRP — within 0.2 log units, 0.0134
- RRIRPRPPRLPRPRPRPKCEPRP — lower, -0.187
- RRIRKRPPRLPRPRPRPSSSPRP — lower, -0.94
- RRIRGRPPRLPRPRPRPNLPPRP — within 0.2 log units, 0.133
- RRIRWRPPRLPRPRPRPYVHPRP — lower, -1.18
- RRIRLRPPRLPRPRPRPDDCPRP — within 0.2 log units, 0.014
- RRIRIRPPRLPRPRPRPQRFPRP — lower, -0.231
- RRIRQRPPRLPRPRPRPAMDPRP — within 0.2 log units, -0.00901
- RRIRQRPPRLPRPRPRPYIFPRP — lower, -0.547
- RRIRTRPPRLPRPRPRPCEDPRP — within 0.2 log units, -0.0385
- RRIRCRPPRLPRPRPRPNAYPRP — lower, -0.502
- RRIRFRPPRLPRPRPRPFSAPRP — lower, -0.274
- RRIRYRPPRLPRPRPRPIKKPRP — within 0.2 log units, 0.017
- RRIRERPPRLPRPRPRPYKCPRP — lower, -0.122
- RRIRHRPPRLPRPRPRPYIRPRP — within 0.2 log units, -0.0464
- RRIRERPPRLPRPRPRPNGPPRP — lower, -0.0578
- RRIRCRPPRLPRPRPRPFRVPRP — lower, -0.32
- RRIRARPPRLPRPRPRPTQPPRP — within 0.2 log units, 0.228
- RRIRARPPRLPRPRPRPEREPRP — higher, 1.05
- RRIRRRPPRLPRPRPRPPMPPRP — higher, 0.568
- RRIRHRPPRLPRPRPRPTGCPRP — within 0.2 log units, -0.0228
- RRIRWRPPRLPRPRPRPMRLPRP — higher, 0.905
- RRIRTRPPRLPRPRPRPKARPRP — within 0.2 log units, 0.0672
- RRIRDRPPRLPRPRPRPPSWPRP — within 0.2 log units, 0.102
- RRIRKRPPRLPRPRPRPRFIPRP — higher, 0.346
- RRIRNRPPRLPRPRPRPIPQPRP — lower, -0.35
- RRIRQRPPRLPRPRPRPKGKPRP — lower, -0.155
- RRIRRRPPRLPRPRPRPFNTPRP — lower, -0.119
- RRIRVRPPRLPRPRPRPFYHPRP — lower, -0.502
- RRIRWRPPRLPRPRPRPSQQPRP — within 0.2 log units, -0.002
- RRIRGRPPRLPRPRPRPSKAPRP — within 0.2 log units, 0.165
- RRIRQRPPRLPRPRPRPDANPRP — within 0.2 log units, 0.0607
- RRIRIRPPRLPRPRPRPYYDPRP — lower, -0.0728
- RRIRIRPPRLPRPRPRPRINPRP — lower, -0.482
- RRIRIRPPRLPRPRPRPQERPRP — lower, -0.17
- RRIRWRPPRLPRPRPRPPFMPRP — within 0.2 log units, 0.0466
- RRIRERPPRLPRPRPRPRWMPRP — within 0.2 log units, 0.0378
- RRIRFRPPRLPRPRPRPGMSPRP — within 0.2 log units, 0.0155
- RRIRYRPPRLPRPRPRPTIRPRP — lower, -0.336
- RRIRHRPPRLPRPRPRPAMRPRP — higher, 1.1
- RRIRNRPPRLPRPRPRPADIPRP — lower, -0.183
- RRIRRRPPRLPRPRPRPMFIPRP — lower, -0.275
- RRIRWRPPRLPRPRPRPNFEPRP — within 0.2 log units, 0.00226
- RRIRFRPPRLPRPRPRPLNFPRP — lower, -0.452
- RRIRVRPPRLPRPRPRPQCQPRP — within 0.2 log units, 0.148
- RRIRARPPRLPRPRPRPMKTPRP — within 0.2 log units, 0.0191
- RRIRRRPPRLPRPRPRPMFYPRP — lower, -0.229
- RRIRFRPPRLPRPRPRPSEGPRP — within 0.2 log units, 0.0716
- RRIRPRPPRLPRPRPRPSMVPRP — lower, -0.376
- RRIRKRPPRLPRPRPRPGDTPRP — within 0.2 log units, 0.0879
- RRIRVRPPRLPRPRPRPPFSPRP — within 0.2 log units, 0.15
- RRIRERPPRLPRPRPRPYPIPRP — within 0.2 log units, 0.113
- RRIRARPPRLPRPRPRPSQLPRP — within 0.2 log units, 0.262
- RRIRGRPPRLPRPRPRPGESPRP — higher, 0.584
- RRIRERPPRLPRPRPRPEGEPRP — within 0.2 log units, 0.332
- RRIRSRPPRLPRPRPRPSCPPRP — lower, -0.494
- RRIRARPPRLPRPRPRPYYYPRP — lower, -0.602
- RRIRPRPPRLPRPRPRPCCSPRP — lower, -0.556
- RRIRGRPPRLPRPRPRPYNAPRP — lower, -0.332
- RRIRVRPPRLPRPRPRPHTQPRP — within 0.2 log units, 0.00176
- RRIRKRPPRLPRPRPRPYELPRP — within 0.2 log units, -0.0181
- RRIRQRPPRLPRPRPRPDYHPRP — lower, -0.269
- RRIRDRPPRLPRPRPRPKLHPRP — higher, 0.464
- RRIRLRPPRLPRPRPRPADTPRP — lower, -0.538
- RRIRIRPPRLPRPRPRPMMLPRP — within 0.2 log units, -0.0496
- RRIRERPPRLPRPRPRPWCDPRP — lower, -0.508
- RRIRYRPPRLPRPRPRPPQQPRP — within 0.2 log units, 0.0729
- RRIRIRPPRLPRPRPRPMPPPRP — lower, -0.0836
- RRIRVRPPRLPRPRPRPADYPRP — within 0.2 log units, 0.0436
- RRIRMRPPRLPRPRPRPSVFPRP — within 0.2 log units, -0.0403
- RRIRHRPPRLPRPRPRPQAFPRP — within 0.2 log units, -0.0247
- RRIRFRPPRLPRPRPRPFHDPRP — lower, -0.149
- RRIRERPPRLPRPRPRPIQSPRP — lower, -0.642
- RRIRKRPPRLPRPRPRPFLAPRP — within 0.2 log units, 0.169
- RRIRLRPPRLPRPRPRPSAPPRP — within 0.2 log units, 0.054
- RRIRPRPPRLPRPRPRPPQIPRP — within 0.2 log units, 0.138
- RRIRYRPPRLPRPRPRPDMWPRP — lower, -1.03
- RRIRWRPPRLPRPRPRPGNWPRP — within 0.2 log units, 0.0533
- RRIRTRPPRLPRPRPRPLWQPRP — within 0.2 log units, 0.0687
- RRIRERPPRLPRPRPRPINMPRP — lower, -0.261
- RRIRARPPRLPRPRPRPKLIPRP — within 0.2 log units, 0.128
- RRIRSRPPRLPRPRPRPIGCPRP — lower, -0.144
- RRIRWRPPRLPRPRPRPADMPRP — within 0.2 log units, 0.0185
- RRIRFRPPRLPRPRPRPLKFPRP — lower, -0.544
- RRIRFRPPRLPRPRPRPNMTPRP — lower, -0.43
